From US9878005B2, “Method of promoting wound healing with hyodxia-induced mitogenic factor” (THE JOHNS HOPKINS UNIVERSITY, priority 2003, dated 2018)

Assays:
[1] = system: Akt phosphorylation (PI3K/Akt pathway) in RPSM; experiment: Western blot for pAkt and Akt in RPSM; format: cell-based, rat; conditions: for inhibition of HIMF-activated Akt phosphorylation: 5 minutes
Protocol: Western blots. The tissue collection and homogenization were performed as described before^1. HIMF was detected with 1:1000 dilution of the anti-HIMF antibody (raised in rabbit using the peptide CENKVKELLANPANYP (SEQ ID NO: 10) conjugated to keyhole limpet hemocyanin as the antigen) followed by 1:3000 dilution of goat anti-rabbit HRP-labeled antibody (BioRad, Hercules, Calif.). The specificity of the anti-HIMF antibody was preliminarily characterized with peptide competition. The peptide used as the immunogen blocked only the HIMF band and had no effect on the nonspecific bands. For phospho-Akt (pAkt) and Akt blots, RPSM were lysed in CelLytic-M (Sigma, St. Louis, Mo.) supplemented with 1 mM PMSF and 1:100 of protease inhibitor cocktail, phosphatase inhibitor cocktail 1 and 2 (Sigma, St. Louis, Mo.). 18 μg of protein in equal volume was subjected to electrophoresis in 4-20% polyacrylamide gel (BioRad, Hercules, Calif.). After transfer to nitrocellulose membrane, the membrane was first probed with anti-pAkt1/2/3(Thr308)(1:500, (Santa Cruz Biotechnology, Santa Cruz, Calif.). Then it was stripped and reprobed with anti-Akt1/2/3 (1:500, (Santa Cruz Biotechnology, Santa Cruz, Calif.).

[2] = system: rat pulmonary microvascular smooth muscle cells (RPSM); experiment: 3H-thymidine incorporation assay (RPSM proliferation); format: cell-based; conditions: for inhibition of serum-induced RPSM proliferation: preliminary experiments
Text: Cell culture and ^3H-thymidine incorporation assays. Rat pulmonary microvascular smooth muscle cells (RPSM) were isolated from male Sprague-Dawley rats (150-200 g) according to a published method2. Briefly, after the pulmonary artery was flushed with phosphate buffered saline (PBS), it was infused with 2% iron oxide suspension in 0.5% agar. The air spaces were filled with agar, the subpleural margins were harvested and partially collagenase digested, and the microvessels were separated magnetically. The identity of RPSM was confirmed by characteristic appearance on phase-contrast microscopy and indirect immunofluorescent antibody staining for smooth muscle-specific isoforms of […] and myosin heavy chain. RPSM were grown in DMEM/F12 medium supplemented with 10% fetal bovine serum (FBS), 2 mM of glutamine, […] of penicillin and 100 μg/ml of streptomycin. Passage 3 to 5 cells were used in the experiments.
The cells were seeded in 24-well plates at 5×10^4/well. After synchronization with serum-free DMEM/F12 (supplemented with 1% Bovine serum albumin (BSA)) for 24 to 48 hours, the cells were treated with the specified agents and 0.1 μCi/well (or 1 μCi/well) of 3H-thymidine in the serum-free DMEM/F12 for 48 hours. After the experimental protocol was completed, the cells were rinsed with PBS twice and incubated in 10% TCA for 30 min. The cells were then washed with PBS two more times and lysed in 250 μl of the lysis buffer (1% SDS, 0.8% NaOH). 3H-thymidine incorporation was measured with a Beckman 6500 scintillation counter in 10 ml of scintillation cocktail.

[3] = system: Akt phosphorylation in L2 cells; experiment: Akt phosphorylation in L2 cells (HIMF isolation vs mock isolation); format: cell-based
Protocol: Recombinant HIMF. The C-terminal tagged HIMF was generated by PCR and inserted into pcDNA5/FRT/TO vector using the EcoR V and Xho I restriction sites. The pcDNA5/FRT/TO vector containing the recombinant HIMF gene was then integrated in a Flp recombinase-dependent manner into the genome of the Flp-In™ T-REx™ 293 cell line using the Flp-In™ T-REx™ kit from Invitrogen (Carlsbad, Calif.). Production of recombinant HIMF was induced by tetracycline (1 μg/ml) in the 293 cells maintained in DMEM supplemented with 5% FBS, 2 mM of glutamine, 100 U/ml of penicillin and 100 μg/ml of streptomycin, 100 μg/ml of hygromycin B, and 7.5 μg/ml of blasticidin. HIMF was purified by anti-FLAG M2 antibody agarose (Sigma, St. Louis, Mo.) column chromatography from the 293 cell culture medium with FLAG (0.1 mg/ml) elution. The concentration of the HIMF protein was estimated semi-quantitatively by silver staining after SDS-PAGE using BSA as the standard. […] Therefore, the recombinant protein has 96 amino acids and has a calculated molecular weight of 10,444 Da. […] To exclude the role of possible contaminants such as insulin, a mock isolation control experiment was performed. The medium obtained from the control TREx-293 cell culture was used for the mock isolation. […]

[4] = system: pulmonary vasculature; experiment: Intact chest mouse experiment; format: in vivo; conditions: intravenous injection
Protocol: Intact chest mouse experiment. The animals were ventilated with 95% O2/5% CO2 and 2% isoflurane using a custom-designed, constant-flow mouse ventilator with tidal volume set to 6.7 ml/kg at 140 breaths/min. A femoral artery was cannulated for the measurement of systemic arterial pressure, which was measured with a Viggo-Spectramed transducer attached to a polygraph (Grass Instruments, model 7). Heart rate was determined from the systolic pressure pulses with a tachometer (Grass, model 7P44A), and the left jugular vein was cannulated for the administration of drugs. The animals were strapped in the supine position to a fluoroscopic table, and PAP was measured with a specially designed murine pulmonary arterial catheter attached to a pressure transducer (Schneider/Namic). Mean PAP was derived electronically, and pulmonary arterial wedge pressure was determined by recently described procedures^6. Cardiac output was measured by the thermodilution technique by injection of a known volume (20 μl) of 0.9% NaCl solution at 23° C. into the right atrium and measurement of blood temperature changes in the root of the aorta with a cardiac output computer (Cardiotherm 500, Columbus Instruments, Columbus, Ohio) equipped with a small-animal interface. A thermistor microprobe (Columbus Instruments, Fr-1) was inserted into the right carotid artery and advanced to the aortic arch, where changes in aortic blood temperature were measured.

[5] = system: vascular tube formation in the Matrigel plug; experiment: Matrigel plug assay in vivo; parameters: species or system mouse; conditions: HIMF 50 nM final, subcutaneous, 7 days; FLAG control 4.3±0.84; n=3, P<0.001
Protocol: Matrigel plug assays: 200 μl of Matrigel mixed with FLAG or HIMF (50 nM final) was injected subcutaneously (n=3 for each group) on the back of mice. Mice were sacrificed after 7 days and the Matrigel plugs collected. Following fixation in 4% paraformaldehyde in PBS ([…], pH 7.4), 10 μm frozen sections were cut and stained either with hemotoxylin and eosin (HE) or von Willebrand factor (vWF). For the detection of vWF, anti-human vWF (1:250 dilution, Dako) and anti-rabbit IgG conjugated with FITC (1:500 dilution) were used. The positive cells were counted and expressed as cell numbers per 20× field.

| Molecule | inhibition of HIMF-activated Akt phosphorylation ([1]; inhibitor 50 μmol/L, HIMF 5×10^−8 mol/L) | inhibition of serum-induced RPSM proliferation [2] | inhibition of HIMF-activated Akt phosphorylation ([1]; inhibitor 20 μmol/L, HIMF 5×10^−8 mol/L) | Akt phosphorylation in L2 cells ([3]; HIMF isolation, mock isolation had no effect) | activation of Akt by the recombinant protein ([3]; L2 cells, preliminary experiments) | pulmonary arterial pressure (PAP) [4] | pulmonary vascular resistance (PVR) [4] | pulmonary vasoconstrictor potency versus endothelin-1, angiotensin II, or serotonin (molar dose-response curves) [4] | Akt activation sustained through ([1]; HIMF 5×10^−8 mol/L) [min] | activation of phosphorylation of Akt ([1]; HIMF 5×10^−8 mol/L) | time of peak Akt activation (phosphorylation) ([1]; HIMF 5×10^−8 mol/L) [min] | activation of Akt by the recombinant protein ([1]; preliminary experiments) | proliferation of RPSM (3H-thymidine incorporation) ([2]; HIMF 3.3×10^−9 to 3.3×10^−8 mol/L) | vascular tube formation in the Matrigel plug [5] |
| --- | --- | --- | --- | --- | --- | --- | --- | --- | --- | --- | --- | --- | --- | --- |
| O=C(Nc1cc(C(=O)Nc2ccc(S(=O)(=O)[O-])cc2S(=O)(=O)[O-])cc(C(=O)Nc2ccc(S(=O)(=O)[O-])cc2S(=O)(=O)[O-])c1)Nc1cc(C(=O)Nc2ccc(S(=O)(=O)[O-])cc2S(=O)(=O)[O-])cc(C(=O)Nc2ccc(S(=O)(=O)[O-])cc2S(=O)(=O)[O-])c1.[Na+].[Na+].[Na+].[Na+].[Na+].[Na+].[Na+].[Na+] [NF449, reference compound] | did not inhibit | inhibit | – | – | – | – | – | – | – | – | – | – | – | – |
| O=c1c(-c2ccc(O)cc2)coc2cc(O)cc(O)c12 [Genistein, reference compound] | – | inhibit | did not inhibit | – | – | – | – | – | – | – | – | – | – | – |
| HIMF: hypoxia-induced mitogenic factor; recombinant C-terminal FLAG-tagged protein of 96 amino acids purified from 293 cell culture medium (protein, UniProt Q9EP95 24-111, looked up, C-terminal FLAG tag, hypoxia-induced mitogenic factor; recombinant C-terminal FLAG-tagged protein of 96 amino acids purified from 293 cell culture medium) Resistin-like alpha: DETIEIIVENKVKELLANPANYPSTVTKTLSCTSVKTMNRWASCPAGMTATGCACGFACGSWEIQSGDTCNCLCLLVDWTTARCCQLS | – | – | – | stimulated | activated | increased | increased | more potent | ≥ 60 | strongly activated | 5 | activated | dose-dependently increased | 17.7±1.37 /×20 field |
